Test results reported in paper PMC4135013.

Assays:
[1] = target: soluble form of recombinant mouse CD16 (sCD16) (mouse); assay: ELISA
[2] = target: soluble form of recombinant mouse CD16 (sCD16) (mouse); assay: SPR

Substance | Kd [1] [µM] | Kd [2] [µM]
OVA-IC (soluble immune complex of OVA and rabbit anti-OVA IgG) (from UniProt P01012 1-386) | 0.09 | –
malondialdehyde-modified low-density lipoprotein (MDALDL) | – | 25
peroxidase/anti-peroxidase immune complex (PAP-IC) | – | 0.078
